From US20210292396A1

Key:
Assay in all cases: cell-based or functional assay
[1] = target: Env of HIV isolate SC422.8 (clade B) (HIV)
[2] = target: HIV Env of isolate 269-12 (HIV)
[3] = target: Env of HIV isolate THRO.18 (clade B) (HIV)
[4] = target: Env of HIV isolate CAP45.G3 (clade C) (HIV)
[5] = target: HIV Env of isolate X1193.c1 (HIV)
[6] = target: HIV Env of isolate Q259.17 (HIV)
[7] = target: Env of HIV isolate 0330.v4.c3 (clade A) (HIV)
[8] = target: HIV Env of isolate 3337.v2.c6 (HIV)
[9] = target: Env of HIV isolate 246-F3.C10.2 (clade AC) (HIV)
[10] = target: HIV Env of isolate 0077.v1.c16 (HIV)
[11] = target: HIV Env of isolate TRJO.58 (HIV)
[12] = target: Env of HIV isolate 242-14 (clade AG) (HIV)
[13] = target: HIV Env of isolate CNE53 (HIV)
[14] = target: HIV Env of isolate 0921.v2.c14 (HIV)
[15] = target: Env of HIV isolate 3301.v1.c24 (clade AC) (HIV)
[16] = target: Env of HIV isolate REJO.67 (clade B) (HIV)
[17] = target: Env of HIV isolate 0815.v3.c3 (clade ACD) (HIV)
[18] = target: HIV Env of isolate 16936-2.21 (HIV)
[19] = target: HIV Env of isolate UG021.16 (HIV)
[20] = target: HIV Env of isolate BJOX010000.06.2 (HIV)
[21] = target: Env of HIV isolate 6095.v1.c10 (clade ACD) (HIV)
[22] = target: Env of HIV isolate QH209.14M.A2 (clade A) (HIV)
Env of SIVmac251.30.SG3 = target: Env of SIVmac251.30.SG3
[23] = target: Env of HIV isolate 25711-2.4 (clade C) (HIV)
[24] = target: HIV Env of isolate KER2018.11 (HIV)
[25] = target: Env of HIV isolate TZA125.17 (clade C) (HIV)
[26] = target: HIV Env of isolate NKU3006.ec1 (HIV)
[27] = target: Env of HIV isolate ZM176.66 (clade C) (HIV)
[28] = target: HIV Env of isolate 286.36 (HIV)
[29] = target: Env of HIV isolate 26191-2.48 (clade C) (HIV)
[30] = target: Env of HIV isolate 25925-2.22 (clade C) (HIV)
[31] = target: Env of HIV isolate R3265.c6 (clade AE) (HIV)
[32] = target: HIV Env of isolate Q168.a2 (HIV)
[33] = target: HIV Env of isolate CNE14 (HIV)
[34] = target: Env of HIV isolate 3016.v5.c45 (clade D) (HIV)
[35] = target: HIV Env of isolate TZBD.02 (HIV)
[36] = target: Env of HIV isolate CH181.12 (clade BC) (HIV)
[37] = target: Env of HIV isolate ZM53.12 (clade C) (HIV)
[38] = target: HIV Env of isolate QH0515.01 (HIV)
[39] = target: HIV Env of isolate Bal.01 (HIV)
[40] = target: HIV Env of isolate 3301.v1.c24 (HIV)
[41] = target: Env of HIV isolate RW020.2 (clade A) (HIV)
[42] = target: HIV Env of isolate RW020.2 (HIV)
[43] = target: Env of HIV isolate BaL.26 (clade B) (HIV)
[44] = target: HIV Env of isolate CNE58 (HIV)
[45] = target: HIV Env of isolate 3873.v1.c24 (HIV)
[46] = target: Env of HIV isolate DU422.01 (clade C) (HIV)
[47] = target: Envelope protein of SIVmac251.30.SG3 (clade NA)
[48] = target: HIV Env of isolate BJOX028000.10.3 (HIV)
[49] = target: Env of HIV isolate BL01.DG (clade B) (HIV)
[50] = target: HIV Env of isolate 6545.v4.c1 (HIV)
[51] = target: Env of HIV isolate UG021.16 (clade D) (HIV)
[52] = target: HIV Env of isolate T266-60 (HIV)

PGT121 (antibody)
IC50, pseudovirus neutralization [1]: 0.115 µg/mL | IC80 [2]: 0.627 µg/mL | IC50, pseudovirus neutralization [3]: > 50 µg/mL | IC50, pseudovirus neutralization [4]: 0.866 µg/mL | IC80, pseudovirus neutralization [5]: 0.147 µg/mL | IC80 [6]: > 50 µg/mL | IC50, pseudovirus neutralization [7]: 0.0597 µg/mL | IC80, pseudovirus neutralization [8]: > 50 µg/mL | IC50, pseudovirus neutralization [9]: > 50 µg/mL | IC80, pseudovirus neutralization [10]: > 50 µg/mL | IC80 [11]: 18.6 µg/mL | IC50, pseudovirus neutralization [12]: > 50 µg/mL | IC80, pseudovirus neutralization [13]: 0.0723 µg/mL | IC80, pseudovirus neutralization [14]: > 50 µg/mL | IC50, pseudovirus neutralization [15]: 0.0217 µg/mL | IC50, pseudovirus neutralization [16]: 1.96 µg/mL | IC50, pseudovirus neutralization [17]: 0.0323 µg/mL | IC80, pseudovirus neutralization [18]: 0.024 µg/mL | IC80, pseudovirus neutralization [19]: > 50 µg/mL | IC80 [20]: > 50 µg/mL | IC50, pseudovirus neutralization [21]: 1.98 µg/mL | IC50, pseudovirus neutralization [22]: > 50 µg/mL | IC80, pseudovirus neutralization (Env of SIVmac251.30.SG3): > 50 µg/mL | IC50, pseudovirus neutralization [23]: 0.0173 µg/mL | IC80 [24]: > 50 µg/mL | IC50, pseudovirus neutralization [25]: 1.45 µg/mL | IC80, pseudovirus neutralization [26]: > 50 µg/mL | IC50, pseudovirus neutralization [27]: 4.1 µg/mL | IC80, pseudovirus neutralization [28]: 0.027 µg/mL | IC50, pseudovirus neutralization [29]: 0.085 µg/mL | IC50, pseudovirus neutralization [30]: 0.045 µg/mL | IC50, pseudovirus neutralization [31]: > 50 µg/mL | IC80 [32]: > 50 µg/mL | IC80 [33]: 0.0243 µg/mL | IC50, pseudovirus neutralization [34]: > 50 µg/mL | IC80, pseudovirus neutralization [35]: 0.137 µg/mL | IC50, pseudovirus neutralization [36]: 0.0313 µg/mL | IC50, pseudovirus neutralization [37]: 0.00267 µg/mL | IC80 [38]: > 50 µg/mL | IC80 [39]: 0.0277 µg/mL | IC80 [40]: 0.05 µg/mL | IC50, pseudovirus neutralization [41]: 0.01 µg/mL | IC80 [42]: 0.0177 µg/mL | IC50, pseudovirus neutralization [43]: 0.0227 µg/mL | IC80, pseudovirus neutralization [44]: > 50 µg/mL | IC80, pseudovirus neutralization [45]: 0.113 µg/mL | IC50, pseudovirus neutralization [46]: 0.062 µg/mL | IC50, pseudovirus neutralization [47]: > 50 µg/mL | IC80 [48]: > 50 µg/mL | IC50, pseudovirus neutralization [49]: 19.6 µg/mL | IC80 [50]: > 50 µg/mL | IC50, pseudovirus neutralization [51]: 0.916 µg/mL | IC80 [52]: 0.548 µg/mL
